# The supplement of paper PMC10065799, “High-throughput profiling of sequence recognition by tyrosine kinases and SH2 domains using bacterial peptide display” (eLife, 2023)
# What was measured:
# Grb2 SH2 = Grb2 SH2 (UniProt P62993); experiment: SH2 binding enrichment of the phosphorylated peptide, bacterial display (enrichment ratio); higher = better substrate or ligand; peptides without Tyr show the background
# SHP2-C SH2 = experiment: as above
# c-Src SH2 = experiment: as above
# c-Src = experiment: phosphorylation enrichment, bacterial display (enrichment ratio); higher = better substrate or ligand; peptides without Tyr show the background
# Fes = Fes (UniProt P07332); experiment: as above
# MERTK = MERTK (UniProt Q12866); experiment: as above
# Jak2 = Jak2 (UniProt O60674); experiment: as above
# Sequence of Jak2 (O60674 whole entry, looked up): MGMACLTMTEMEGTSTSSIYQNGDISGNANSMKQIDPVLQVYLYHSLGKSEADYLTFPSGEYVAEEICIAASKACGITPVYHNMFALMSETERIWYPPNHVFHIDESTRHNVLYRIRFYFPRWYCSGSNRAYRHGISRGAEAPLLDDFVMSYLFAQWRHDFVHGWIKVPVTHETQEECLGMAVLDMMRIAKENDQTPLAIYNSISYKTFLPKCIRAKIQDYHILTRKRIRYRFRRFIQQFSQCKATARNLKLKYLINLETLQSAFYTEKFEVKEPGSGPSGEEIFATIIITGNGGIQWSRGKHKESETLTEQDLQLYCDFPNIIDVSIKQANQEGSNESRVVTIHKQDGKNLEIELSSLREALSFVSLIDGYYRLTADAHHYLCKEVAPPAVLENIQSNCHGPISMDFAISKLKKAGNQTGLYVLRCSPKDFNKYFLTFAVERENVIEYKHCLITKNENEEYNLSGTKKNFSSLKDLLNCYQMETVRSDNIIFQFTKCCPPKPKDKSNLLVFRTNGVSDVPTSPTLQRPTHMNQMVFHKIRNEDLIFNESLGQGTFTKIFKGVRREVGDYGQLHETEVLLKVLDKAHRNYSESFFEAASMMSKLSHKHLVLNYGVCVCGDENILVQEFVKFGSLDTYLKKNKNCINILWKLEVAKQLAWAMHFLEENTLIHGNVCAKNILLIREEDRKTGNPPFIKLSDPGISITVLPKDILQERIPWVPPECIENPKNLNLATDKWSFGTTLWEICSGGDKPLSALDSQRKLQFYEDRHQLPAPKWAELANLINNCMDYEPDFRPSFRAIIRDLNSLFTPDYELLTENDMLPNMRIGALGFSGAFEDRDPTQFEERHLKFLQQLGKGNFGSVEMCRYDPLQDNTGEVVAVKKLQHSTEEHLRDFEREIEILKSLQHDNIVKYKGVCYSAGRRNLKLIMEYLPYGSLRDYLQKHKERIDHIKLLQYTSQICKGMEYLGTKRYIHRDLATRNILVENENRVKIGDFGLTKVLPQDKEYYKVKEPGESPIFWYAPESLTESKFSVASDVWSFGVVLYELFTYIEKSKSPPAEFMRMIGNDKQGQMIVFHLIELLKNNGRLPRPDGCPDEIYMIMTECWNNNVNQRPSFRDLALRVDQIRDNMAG
# FGFR1 = FGFR1 (UniProt P11362); experiment: as above
# Sequence of FGFR1 (P11362 whole entry, looked up): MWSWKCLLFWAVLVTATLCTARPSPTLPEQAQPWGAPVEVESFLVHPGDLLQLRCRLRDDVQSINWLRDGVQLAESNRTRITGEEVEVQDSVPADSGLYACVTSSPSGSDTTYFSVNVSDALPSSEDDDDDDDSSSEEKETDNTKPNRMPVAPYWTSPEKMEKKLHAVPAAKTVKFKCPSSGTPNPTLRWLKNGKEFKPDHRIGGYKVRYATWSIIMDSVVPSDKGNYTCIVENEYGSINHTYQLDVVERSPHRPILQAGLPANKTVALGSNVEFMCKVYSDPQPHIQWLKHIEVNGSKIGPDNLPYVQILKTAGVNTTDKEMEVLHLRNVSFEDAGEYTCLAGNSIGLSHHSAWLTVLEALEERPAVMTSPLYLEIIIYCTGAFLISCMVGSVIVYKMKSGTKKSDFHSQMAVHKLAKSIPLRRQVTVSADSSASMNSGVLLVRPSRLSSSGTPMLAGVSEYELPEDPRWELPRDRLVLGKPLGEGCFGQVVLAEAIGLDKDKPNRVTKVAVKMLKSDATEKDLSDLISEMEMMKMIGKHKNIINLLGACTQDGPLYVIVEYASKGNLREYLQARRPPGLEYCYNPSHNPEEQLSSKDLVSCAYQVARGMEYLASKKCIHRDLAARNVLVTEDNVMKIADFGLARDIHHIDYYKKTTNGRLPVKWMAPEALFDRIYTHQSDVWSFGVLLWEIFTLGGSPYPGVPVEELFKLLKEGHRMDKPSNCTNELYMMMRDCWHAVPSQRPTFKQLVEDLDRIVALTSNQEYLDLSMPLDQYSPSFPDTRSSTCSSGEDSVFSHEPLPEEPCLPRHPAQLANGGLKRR
# Fer (mouse) = experiment: as above
# Hck = Hck (UniProt P08631); experiment: as above
# Sequence of Hck (P08631 whole entry, looked up): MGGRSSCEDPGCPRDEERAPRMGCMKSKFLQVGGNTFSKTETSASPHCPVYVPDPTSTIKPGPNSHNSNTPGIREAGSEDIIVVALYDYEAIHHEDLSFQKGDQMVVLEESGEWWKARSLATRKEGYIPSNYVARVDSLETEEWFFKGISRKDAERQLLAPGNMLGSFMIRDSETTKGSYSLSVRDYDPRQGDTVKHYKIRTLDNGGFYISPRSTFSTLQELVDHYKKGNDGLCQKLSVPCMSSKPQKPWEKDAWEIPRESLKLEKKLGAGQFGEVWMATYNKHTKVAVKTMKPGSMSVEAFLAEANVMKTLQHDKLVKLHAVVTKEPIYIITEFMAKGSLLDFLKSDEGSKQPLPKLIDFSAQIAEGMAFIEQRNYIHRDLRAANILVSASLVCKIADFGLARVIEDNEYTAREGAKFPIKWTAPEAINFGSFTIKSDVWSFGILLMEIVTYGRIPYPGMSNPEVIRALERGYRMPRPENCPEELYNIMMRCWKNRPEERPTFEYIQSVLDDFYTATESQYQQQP
# AncSZ = experiment: as above
# c-Abl (mouse) = experiment: as above
# FGFR3 = FGFR3 (UniProt P22607); experiment: as above
# Sequence of FGFR3 (P22607 whole entry, looked up): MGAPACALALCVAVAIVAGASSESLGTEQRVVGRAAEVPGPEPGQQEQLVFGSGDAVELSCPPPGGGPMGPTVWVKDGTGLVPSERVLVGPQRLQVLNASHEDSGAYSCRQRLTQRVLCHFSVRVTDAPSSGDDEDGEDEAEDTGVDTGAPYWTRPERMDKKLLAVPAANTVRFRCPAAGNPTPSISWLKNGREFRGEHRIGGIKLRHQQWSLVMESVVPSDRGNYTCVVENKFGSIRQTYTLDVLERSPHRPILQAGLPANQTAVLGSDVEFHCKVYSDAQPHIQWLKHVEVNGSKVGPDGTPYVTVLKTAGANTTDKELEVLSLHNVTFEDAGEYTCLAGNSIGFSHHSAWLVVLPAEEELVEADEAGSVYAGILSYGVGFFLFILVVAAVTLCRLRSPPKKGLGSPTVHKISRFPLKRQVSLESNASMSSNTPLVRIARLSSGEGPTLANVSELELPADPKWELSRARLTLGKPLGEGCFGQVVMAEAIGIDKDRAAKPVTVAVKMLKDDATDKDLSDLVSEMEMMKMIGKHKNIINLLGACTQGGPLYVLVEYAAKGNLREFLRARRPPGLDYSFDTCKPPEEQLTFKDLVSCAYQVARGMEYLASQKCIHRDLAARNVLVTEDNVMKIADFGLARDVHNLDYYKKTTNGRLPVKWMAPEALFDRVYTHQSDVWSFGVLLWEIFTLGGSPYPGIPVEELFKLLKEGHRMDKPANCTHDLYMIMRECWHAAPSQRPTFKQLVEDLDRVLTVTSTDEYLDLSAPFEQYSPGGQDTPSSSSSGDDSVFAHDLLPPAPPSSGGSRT
# EPHB2 = EPHB2 (UniProt P29323); experiment: as above
# Sequence of EPHB2 (P29323 whole entry, looked up): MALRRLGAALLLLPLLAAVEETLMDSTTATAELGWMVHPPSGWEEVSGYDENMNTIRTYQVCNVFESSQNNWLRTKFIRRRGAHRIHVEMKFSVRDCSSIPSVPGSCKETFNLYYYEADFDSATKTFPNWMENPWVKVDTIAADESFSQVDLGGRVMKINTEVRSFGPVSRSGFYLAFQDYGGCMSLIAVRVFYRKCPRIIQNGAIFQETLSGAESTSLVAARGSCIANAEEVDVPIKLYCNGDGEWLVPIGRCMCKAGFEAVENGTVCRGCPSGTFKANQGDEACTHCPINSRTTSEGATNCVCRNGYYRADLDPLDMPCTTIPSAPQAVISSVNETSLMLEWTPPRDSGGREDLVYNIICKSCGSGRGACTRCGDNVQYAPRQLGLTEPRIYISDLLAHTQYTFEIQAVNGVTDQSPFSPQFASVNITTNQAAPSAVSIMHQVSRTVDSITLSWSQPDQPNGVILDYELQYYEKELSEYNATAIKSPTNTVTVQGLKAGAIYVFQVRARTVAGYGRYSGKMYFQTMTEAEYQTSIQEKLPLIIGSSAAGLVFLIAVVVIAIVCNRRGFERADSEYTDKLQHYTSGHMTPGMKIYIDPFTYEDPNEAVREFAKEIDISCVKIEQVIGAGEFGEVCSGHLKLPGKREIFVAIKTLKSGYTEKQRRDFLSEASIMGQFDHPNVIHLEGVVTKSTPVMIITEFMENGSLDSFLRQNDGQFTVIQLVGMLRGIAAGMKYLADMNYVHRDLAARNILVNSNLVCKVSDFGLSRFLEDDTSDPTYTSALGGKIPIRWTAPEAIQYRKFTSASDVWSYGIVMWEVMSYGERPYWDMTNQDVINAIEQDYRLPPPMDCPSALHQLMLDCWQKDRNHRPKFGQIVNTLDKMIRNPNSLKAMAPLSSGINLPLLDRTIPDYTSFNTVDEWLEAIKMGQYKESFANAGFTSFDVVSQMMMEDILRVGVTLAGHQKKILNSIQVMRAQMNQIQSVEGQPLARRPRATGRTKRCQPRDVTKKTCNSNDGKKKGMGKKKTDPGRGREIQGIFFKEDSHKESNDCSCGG
# EPHB1 = EPHB1 (UniProt P54762); experiment: as above
# Fyn = Fyn (UniProt P06241); experiment: as above
# Sequence of Fyn (P06241 whole entry, looked up, the tested form may be a part): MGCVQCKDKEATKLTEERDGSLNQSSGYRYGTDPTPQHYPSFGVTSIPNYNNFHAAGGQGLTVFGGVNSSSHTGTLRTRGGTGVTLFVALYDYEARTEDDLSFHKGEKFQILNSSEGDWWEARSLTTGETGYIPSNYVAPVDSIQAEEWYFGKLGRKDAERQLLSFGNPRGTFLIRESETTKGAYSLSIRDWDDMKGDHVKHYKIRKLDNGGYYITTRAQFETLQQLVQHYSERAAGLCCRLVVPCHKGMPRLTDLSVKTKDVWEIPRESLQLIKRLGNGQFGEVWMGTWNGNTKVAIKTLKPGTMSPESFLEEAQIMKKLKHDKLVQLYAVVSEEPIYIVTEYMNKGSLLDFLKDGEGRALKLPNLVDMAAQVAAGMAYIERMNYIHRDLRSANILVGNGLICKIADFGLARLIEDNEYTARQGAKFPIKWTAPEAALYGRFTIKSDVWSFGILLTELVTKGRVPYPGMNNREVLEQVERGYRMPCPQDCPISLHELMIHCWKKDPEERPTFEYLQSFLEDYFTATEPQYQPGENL
# 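For SH2 binding enrichment of the phosphorylated peptide, bacterial display in this document: peptide library displayed on the E. coli surface as eCPX fusions, selected cells deep-sequenced, score is each peptide's frequency after selection divided by its frequency in the input.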
# 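For phosphorylation enrichment, bacterial display in this document: 11-residue human phosphosite peptides and single-mutation variants displayed on the E. coli surface, counted by deep sequencing, each peptide's frequency after selection divided by its frequency in the unselected input library; frequency after pTyr selection over input frequency; kinase dosed for 20-30% of maximal phosphorylation in three min.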
SH2 binding enrichment (Grb2 SH2),SH2 binding enrichment (SHP2-C SH2),SH2 binding enrichment (c-Src SH2),Sequence,phosphorylation enrichment (c-Src),phosphorylation enrichment (Fes),phosphorylation enrichment (MERTK),phosphorylation enrichment (Jak2),phosphorylation enrichment (FGFR1),phosphorylation enrichment (Fer (mouse)),phosphorylation enrichment (Hck),phosphorylation enrichment (AncSZ),phosphorylation enrichment (c-Abl (mouse)),phosphorylation enrichment (FGFR3),phosphorylation enrichment (EPHB2),phosphorylation enrichment (EPHB1),phosphorylation enrichment (Fyn)
1.14,0.974,0.81,KRFAFYRDSPR [FOXE3_Y108_E103K],0.414,0.643,0.437,0.482,0.443,0.421,0.387,0.538,0.526,0.479,0.387,0.327,0.446
0.826,19.3,12.1,NGSKGYAYVHF [PABPC5_Y147],0.456,0.904,0.519,0.961,0.736,0.516,0.499,1.08,0.707,0.718,0.61,0.553,0.493
0.834,10.7,1.76,SSVAGYACLAF [MVD_Y131_A128V_YF],0.519,1.21,0.631,0.961,0.516,0.511,0.556,0.903,0.949,0.792,0.537,0.562,0.478
0.834,0.695,0.636,KVNKIYYPDFI [LIG3_Y767],0.724,0.762,1.05,0.68,4.13,0.481,0.668,0.727,0.589,3.46,0.45,0.536,0.607
0.715,0.613,0.603,GTTIHYNFMCN [TP53_Y234_C229G_YF],0.467,1.32,0.465,1.13,0.544,0.63,0.532,1.12,0.888,0.822,0.718,0.743,0.477
1.19,0.739,0.709,WRGMPYGGRGD [TGM1_Y312_R307W],0.419,0.514,0.363,0.482,0.388,0.31,0.39,0.548,0.396,0.486,0.401,0.34,0.467
1.06,0.999,0.478,GFGGGYGGVLT [KRT19_Y65_A60G_YF],0.45,0.696,0.381,0.575,0.491,0.492,0.488,0.626,0.493,0.522,0.444,0.452,0.47
0.981,0.758,0.578,EPYEVYRIVPE [IRF8_Y110_K108E],6.54,1.15,1.05,0.994,4.53,8.85,4.62,3.39,1.25,3.35,1.9,1.45,6.69
1.11,1.1,1.07,YFWDGYMPRQY [GSS_Y270_R267W],0.772,1.18,3.96,5.42,10.8,0.576,0.783,1.01,0.565,9.39,0.521,0.68,0.547
0.534,0.651,0.364,MPLTEYLKQIK [CNGB3_Y200_R203Q],0.582,0.995,0.459,0.749,0.533,0.451,0.514,0.83,0.844,0.526,0.511,0.572,0.448
0.872,0.712,0.759,GMIQAYSSSQR [DES_Y5_S2I],0.37,0.509,0.357,0.442,0.384,0.319,0.412,0.485,0.42,0.389,0.334,0.401,0.346
1.05,1.16,0.999,TKAEKYVNKPK [PLCG1_Y991_A995P],0.467,0.714,0.423,0.596,0.594,0.442,0.559,0.72,0.942,0.534,0.376,0.336,0.398
0.642,0.719,0.419,IVEFAYNDKAI [PUM3_Y259_YF],0.474,0.74,0.494,0.668,0.432,0.406,0.52,0.783,0.538,0.525,0.59,0.395,0.475
0.827,0.614,0.558,SEDSEYYKAFE [CASQ2_Y178],0.698,1.16,0.494,1.17,0.58,0.535,0.61,1.71,0.695,0.98,0.611,0.656,0.621
1.05,0.996,1.19,ADFPDCKFRPR [SOX11_Y116_Y116C_YF],0.465,0.983,0.391,0.965,0.532,0.412,0.545,0.783,0.744,0.616,0.409,0.488,0.395
0.744,0.844,0.732,DPGVSYRTREE [PDHA1_Y301],0.376,0.809,0.378,0.549,0.637,0.368,0.461,0.891,0.647,0.53,0.61,0.385,0.409
0.673,0.809,0.563,QQTFTYDSGIH [JUP_Y22_YF],0.95,1.78,0.793,0.985,0.984,0.896,1.85,1.8,0.999,1.42,1.33,1.35,1.18

SH2 binding enrichment (Grb2 SH2),SH2 binding enrichment (SHP2-C SH2),SH2 binding enrichment (c-Src SH2),Sequence,phosphorylation enrichment (c-Src),phosphorylation enrichment (Fes),phosphorylation enrichment (MERTK),phosphorylation enrichment (Jak2),phosphorylation enrichment (FGFR1),phosphorylation enrichment (Fer (mouse)),phosphorylation enrichment (Hck),phosphorylation enrichment (AncSZ),phosphorylation enrichment (c-Abl (mouse)),phosphorylation enrichment (FGFR3),phosphorylation enrichment (EPHB2),phosphorylation enrichment (EPHB1),phosphorylation enrichment (Fyn)
0.772,0.72,0.626,FSLPAYMDRRD [COX4I1_Y38],0.424,0.815,0.425,0.696,0.464,0.432,0.492,0.873,0.87,0.622,0.471,0.459,0.355
0.957,1.18,0.731,LEHCQYVTQKV [ALDOB_Y204_E207Q],0.617,1.04,0.401,1.03,0.656,0.648,0.507,1.01,0.727,0.763,0.924,0.818,0.47
0.879,0.826,0.728,PPVVNYEQDAR [FER_Y402_E404Q],0.646,1.18,0.541,1.49,0.69,0.679,0.628,1.33,0.767,1.29,0.534,1.01,0.636
0.654,0.817,0.353,QMVGMYAFSFM [AVPR2_Y124_S126F_YF],1.28,1.65,5.8,1.15,0.846,3.54,1.06,1.5,0.912,1.63,3.08,1.95,1.16
1.44,1.59,1.2,AKKKMYSCKTK [AGXT_Y231_R233C],0.474,1.19,0.529,2.73,0.588,0.613,0.537,1.01,1.95,1.64,0.578,0.62,0.417
0.814,0.882,0.485,FQEKGYNKELR [CHRND_Y38],0.378,0.74,0.382,0.57,0.471,0.376,0.351,0.675,0.45,0.519,0.268,0.45,0.335
1.38,1.3,1.23,LLKAGYQGVLR [TTPA_Y100_H101Q],0.311,0.73,0.459,0.55,0.67,0.425,0.713,0.502,0.442,0.565,0.366,0.648,0.265
0.652,0.563,0.328,PEAALYGRFTF [FYN_Y440_I445F],7.87,1.6,5.92,1.41,1.29,2.75,8.89,1.21,4.39,0.971,1.2,1.14,10.1
1.61,1.6,1.64,FLAVGYHKPRI [IDS_Y225_H229R],0.305,0.838,0.272,0.502,0.379,0.402,0.374,0.638,0.481,0.5,0.44,0.477,0.426
0.722,0.472,0.458,FRQLPYCPSVE [CTNND2_Y508_Q507P_YF],0.499,1.39,0.486,1.08,0.526,0.603,0.776,1.25,0.837,1.2,0.748,0.647,0.538
0.753,0.806,0.486,GVTLLCYGRYN [ADGRD1_Y85_Y85C],0.97,1.55,0.397,1.23,0.435,0.563,0.508,1.31,0.975,0.908,0.682,0.707,0.708
0.796,0.606,0.469,PGIRMYRVQFN [LRFN1_Y454_Q455R_YF],0.607,1.14,0.652,0.844,0.622,0.611,0.485,1.35,0.512,0.618,0.642,0.468,0.656
0.983,0.565,0.512,SAEKAYHEQFS [TUBA1A_Y282_L286F],0.441,0.701,0.424,0.663,0.557,0.394,0.458,0.664,0.454,0.459,0.393,0.401,0.519
0.836,0.594,0.451,ERTIEYLEEVV [HADHA_Y239_A244V],0.487,1.17,0.386,1.07,0.55,0.523,0.498,1.18,0.739,0.712,0.615,0.559,0.466
0.974,0.719,3,HKLSSYEFDFE [BTK_Y40_Y39S_YF],1.09,1.51,0.865,2.13,0.889,0.664,0.565,1.83,1.43,0.844,0.75,0.902,0.777
0.757,0.509,0.444,WQQQSYLDSVI [CTNNB1_Y30_G34V],0.496,1.03,0.406,0.908,0.579,0.469,0.529,0.983,0.806,0.716,0.668,0.511,0.504
